Results as given in patent US20190169256A1.
Blank lines part the entries; values can stand above or below the substance they belong to.

Legend:
Assay in all cases: cell-based or functional assay
[1] = target: Salmon tac3 receptor (salmon)
[2] = target: Tilapia tac3 receptor (tilapia)
[3] = target: Zebrafish tac3 receptor (zebrafish)

EC50 of SRE-Luciferase activity (COS7 cells expressing slNKB receptor) [1]: 1.03 nM
Substance: Salmon NKB (slNKB) (peptide)

luciferase activity (CRE-Luc, COS-7 cells transfected with salmon tac3r) [1]: 1.8 fold | luciferase activity (CRE-Luc reporter, COS-7 cells transfected with tilapia tac3 receptor) [2]: 1.8 fold
Substance: tilapia NKB (peptide)

CRE-LUC (COS-7 cells transfected with zebrafish tac3 receptor) [3]: > 3 fold
Substance: zebrafish NKB (peptide)
